Paper PMC11609306, “Phosphorylation determines the glucose metabolism reprogramming and tumor-promoting activity of sine oculis homeobox 1” (Signal Transduction and Targeted Therapy, 2024)

Experiments:
[1] = target: T1, His-tagged ERK1 (UniProt P27361 1-379); experiment: pull-down; GST pull-down: purified GST-SIX1 fusion protein with purified His-tagged ERK1/2; details: both partners purified
T1 construct: Extracellular signal-regulated protein kinase 1 (ERK1); Built in pET28a; also called His-tagged ERK1/2; source: E. coli BL21, purified (His-Sepharose beads)

[2] = target: T2, His-tagged ERK2 (UniProt P28482 1-360); experiment: as above; details: both partners purified
T2 construct: Extracellular signal-regulated protein kinase 2 (ERK2); Built in pET28a; also called His-tagged ERK1/2; source: E. coli BL21, purified (His-Sepharose beads)
T2 sequence (P28482 whole entry): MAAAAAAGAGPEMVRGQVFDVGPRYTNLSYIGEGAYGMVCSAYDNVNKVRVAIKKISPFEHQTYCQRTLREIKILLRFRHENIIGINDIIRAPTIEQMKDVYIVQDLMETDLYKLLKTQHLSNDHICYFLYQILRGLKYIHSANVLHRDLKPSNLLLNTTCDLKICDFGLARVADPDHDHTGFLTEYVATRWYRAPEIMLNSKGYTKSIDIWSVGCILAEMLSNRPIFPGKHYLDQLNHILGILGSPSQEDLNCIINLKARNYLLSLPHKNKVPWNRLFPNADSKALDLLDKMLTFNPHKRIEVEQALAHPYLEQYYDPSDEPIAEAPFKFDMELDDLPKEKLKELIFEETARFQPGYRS

T1 sequence (P27361 whole entry, the tested form may be a part): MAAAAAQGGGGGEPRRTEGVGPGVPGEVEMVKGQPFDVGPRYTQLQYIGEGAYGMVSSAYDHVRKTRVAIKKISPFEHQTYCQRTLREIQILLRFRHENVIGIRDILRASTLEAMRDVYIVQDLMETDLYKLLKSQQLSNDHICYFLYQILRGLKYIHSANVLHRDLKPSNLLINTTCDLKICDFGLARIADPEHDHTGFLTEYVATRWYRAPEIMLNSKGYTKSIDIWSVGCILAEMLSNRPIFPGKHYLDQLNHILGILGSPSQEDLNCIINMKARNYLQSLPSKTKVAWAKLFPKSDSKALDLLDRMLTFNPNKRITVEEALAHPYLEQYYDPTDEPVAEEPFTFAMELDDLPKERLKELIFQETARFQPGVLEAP

B1: GST-SIX1 fusion protein (natural protein, human, UniProt Q15475 1-284, looked up)
chain: MSMLPSFGFTQEQVACVCEVLQQGGNLERLGRFLWSLPACDHLHKNESVLKAKAVVAFHRGNFRELYKILESHQFSPHNHPKLQQLWLKAHYVEAEKLRGRPLGAVGKYRVRRKFPLPRTIWDGEETSYCFKEKSRGVLREWYAHNPYPSPREKRELAEATGLTTTQVSNWFKNRRQRDRAAEAKERENTENNNSSSNKQNQLSPLEGGKPLMSSSEEEFSPPQSPDQNSVLLLQGNMGHARSSNYSLPGLTASQPSHGLQTHQHQLQDSLLGPLTSSLVDLGS
notes: Sine oculis homeobox 1 (SIX1), human; Built in pGEX-KG; source: E. coli BL21, purified (glutathione-Sepharose 4B)
B1: binds [1]; binds [2].
